Consider one protein from article PMC3324469, “Preparation and Characterization of the Extracellular Domain of Human Sid-1” (PLoS ONE, 2012).

“And” between values parts separate entries of the source, which are not always exact repeats. Equal entries are not always repeated.

The data set deals with the molecule itself. The data set can be described thus: SEC; Superdex 200; concentrated protein applied directly to the column, no pre-incubation period; masses estimated against molecular weight standards.

B1: extracellular domain of human SidT1 (SidT1 ECD), glycosylated, secreted from insect cells (domain or fragment)
chain: GAASPGHPAKSPRQPPAPRRDPFDAARGADFDHVYSGVVNLSTENIYSFNYTSQPDQVTAVRVYVNSSSENLNYPVLVVVRQQKEVLSWQVPLLFQGLYQRSYNYQEVSRTLCPSEATNETGPLQQLIFVDVASMAPLGAQYKLLVTKLKHFQLRTNVAFHFTASPSQPQYFLYKFPKDVDSVIIKVVSEMAYPCSVVSVQNIMCPVYDLDHNVEFNGVYQSMTKKAAITLQKKDFPGEQFFVVFVIKPEDYACGGSFFIQEKENQTWNLQRKKNLEVTIVPSIKES
modifications: N-linked glycosylation (sites not given)
notes: N-terminal glycine appendage left from the TEV protease site; human SidT1 (Sid-1 homolog), extracellular domain, residues 19-304 of Entrez Protein AAI17223, after signal peptidase and TEV cleavage; also called SidT1 extracellular domain; recombinant SidT1 ECD; source: Tni (usually) or Sf9 insect cells, baculovirus, secreted into the medium; not shown: His6, N-terminal, cleaved
A word on the stoichiometry N: it is the number of molecules, sites or subunits per partner or assembly. Turning to B1, the “stoichiometry N” value is 2 and 4.
